This note sets out measurements from publication PMC12710314.

This series has as its system T1, LigR (Novosphingobium aromaticivorans DSM 12444), ORF:c1f1f590.
T1 sequence: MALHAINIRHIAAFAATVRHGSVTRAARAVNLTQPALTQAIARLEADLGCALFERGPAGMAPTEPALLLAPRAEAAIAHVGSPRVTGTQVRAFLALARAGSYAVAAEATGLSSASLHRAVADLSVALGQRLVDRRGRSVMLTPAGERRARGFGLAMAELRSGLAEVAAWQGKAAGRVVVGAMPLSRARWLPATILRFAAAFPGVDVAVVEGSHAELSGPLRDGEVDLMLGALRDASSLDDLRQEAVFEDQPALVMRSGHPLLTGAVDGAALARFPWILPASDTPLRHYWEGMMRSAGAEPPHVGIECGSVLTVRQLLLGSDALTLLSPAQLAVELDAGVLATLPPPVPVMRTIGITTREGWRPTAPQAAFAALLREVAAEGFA
The series is described as follows: EMSA. As to conditions: EMSA: 20 nM DNA, 50 mM Tris-HCl, 20 mM HEPES, 1 mM EDTA, 1 mM DTT, 100 mM NaCl, 10% glycerol, pH not stated, room temperature 30 min, gel at 4 C; DNase I ….
On to “ATGCCCAGGCCGATGCCGCTGGCGCCGCCCGTCACGAAAGCCGTCTTGCCCGGCAGATTCTGCATCGATCCTCTCCTTTGGTGCCTTGCCGGCAGCCATCGACCGGCGCCGGGAATCATTTTTCGCCTTTTGTATTCACCAGCGAGGAATTGTATGCAAGACTAACAATATTGCTGCTTCGACAAGGCCCGCCGAAATGGGTCGCCGCAGCGGGA (double strand) [ligN upstream EMSA fragment]”, for which the binding result is recorded as “no binding”.

With “CAAAGGTCGACCCGGCCTCACCGAAGCCGATCAGGGCGATTGTGAACTCAGGAACGCTCTCCATGGCAGCGGTCCTGCGTCGGCCGCGCCAAAGGAACAAATGCAAACATCGCCCAAGGTATAAATTTATGCAAAGCCTTCTGCGGCCACTTCGCGCAGGAGGGCCGCGAAGGCCGCCTGCGGCGCGGTCGGCCGCCAAC (double strand) [SARO_RS14280 promoter EMSA fragment]”, the binding entry is listed as “binds”. Next, “CGATCTGAAGTGCTCAACGTGCAAAGCCTGCACAAAATGACAGGTCGTGCCGGCATCTCAATCGCCTGTTGCTTCCCCTTCTGCTGATTGCTATAAATCATAACAGATTGGGAGAGAGTCATGCAGTTTGAACGCATCAATCCGATGACCGGCGCCGTCGCCTCGCAGGCAGAGGCCATGAAAGCGTCGGACATTCCTTC (double strand) [ligV upstream EMSA fragment]”: “no binding”.

With “GCCTTCTGCTTCTCGCGCCACTCGTCGTGCGCCTTCGGCAGCACGGTGTAGTGACCGTGGCAGTCGATGATCATGGTCATGCGACTTCAGTCCTCTCAAGTTTGAACTCTATGGTCTTGCCCGCCTGCTCGCGCTGGCGCCTCACCGTCCCGCCGGTCATCACCGGCTCGACGCCCAGCGATTCCAGCGTCTTGGCTGAC (double strand) [ligJ upstream EMSA fragment]”, the binding entry is on record as “no binding”. Consider “GGACGACGATACCCGACATTTCCGGCTCCCGATGAAAGATCTTCGCGCGTTCCATGGAACTGCGGACCGCAGGGAACCAATGCATTGTTTGCCCCGGCCCATAAGGAAATGCTAAGTGATCAGGCATGGCCCTGCACGCGATCAACATCAGGCACATCGCCGCCTTCGCCGCAACGGTGCGCCACGGCAGCGTGACGCGG (double strand) [ligK promoter EMSA fragment]”, for which the binding entry is listed as “binds”.
